{
  "source": "paper PMC4930934",
  "key": {"[1]": {"biological_target": "BMR–HFBI (diflavin reductase domain of P450 BM3 fused at its C-terminus to hydrophobin HFBI) (Bacillus megaterium | Trichoderma reesei) (UniProt P14779)"}, "[2]": {"biological_target": "BMR–HFBI (diflavin reductase domain of P450 BM3 fused at its C-terminus to hydrophobin HFBI) (Bacillus megaterium | Trichoderma reesei) (UniProt P14779)", "remark": "listed apart in the source"}, "[3]": {"biological_target": "BMR–HFBI (diflavin reductase domain of P450 BM3 fused at its C-terminus to hydrophobin HFBI) (Bacillus megaterium | Trichoderma reesei) (UniProt P14779)", "remark": "listed apart in the source"}},
  "data": [
    {"substance": "BMO–HFBI (monooxygenase domain of P450 BM3 fused at its C-terminus to hydrophobin HFBI) (from UniProt P14779 1-472; P52754 23-97)", "values": [
      {"measurement": "conversion of myristic acid with cofactor regeneration, equimolar ratio (1:1 μM), time course 2-24 h (49% after 2 h, 78% after 6 h, 99% after 24 h)", "setting": "[1]", "value": 99, "unit": "%"},
      {"measurement": "conversion of myristic acid with cofactor regeneration, fivefold molar excess of reductase (1:5 μM), after 2 h", "setting": "[2]", "value": 97, "unit": "%"},
      {"measurement": "coupling efficiency (product formed per NADPH consumed) in myristic acid hydroxylation, P450:reductase 1:1 (1 μM each)", "setting": "[3]", "value": 57.4, "unit": "%"},
      {"measurement": "coupling efficiency (product formed per NADPH consumed) in myristic acid hydroxylation, P450:reductase 1:5 (1 μM : 5 μM)", "setting": "[3]", "value": 92.7, "unit": "%"}
    ]}
  ]
}
